# Source: patent publication US8916149B2, “Preventing and treating sepsis” (University of Rochester, priority 2008, dated 2014)
# “Also recorded” adds a separate entry of the source.
# B1: rhAPC: Recombinant human activated protein C obtained from Eli Lilly; FDA-approved drug for severe sepsis (protein)
# chain 1: ANSFLEELRHSSLERECIEEICDFEEAKEIFQNVDDTLAFWSKHVDGDQCLVLPLEHPCASLCCGHGTCIDGIGSFSCDCRSGWEGRFCQREVSFLNCSLDNGGCTHYCLEEVGWRRCSCAPGYKLGDDLLQCHPAVKFPCGRPWKRMEKKRSHL
# chain 2: LIDGKMTRRGDSPWQVVLLDSKKKLACGAVLIHPSWVLTAAHCMDESKKLLVRLGEYDLRRWEKWELDLDIKEVFVHPNYSKSTTDNDIALLHLAQPATLSQTIVPICLPDSGLAERELNQAGQETLVTGWGYHSSREKEAKRNRTFVLNFIKIPVVPHNECSEVMSNMVSENMLCAGILGDRQDACEGDSGGPMVASFHGTWFLVGLVSWGEGCGLLHNYGVYTKVSRYLDWIHGHIRDKEAPQKSWAP
# Columns and labels:
# α3β1 = target: T1, α3β1 (Homo sapiens, UniProt P05556+P26006); test: Solid phase integrin ligand binding assay; details: 1 mM Mn2+, 1 mM Ca2+, 1 mM Mg2+
# T1 construct: purchased US Biological, Swampscott, Mass
# Experimental: (§1) The solid phase binding assay was performed using purified soluble human α3β1, α5β1, and αVβ3 (US Biological, Swampscott, Mass.). Two (2) μg/ml of soluble integrins were added to microtiter wells for capture with immobilized monoclonal antibody against β1 or β3 subunits (mAb TS2/6 for β1 and mAb BB10 (Chemicon, Temecula, Calif.) for β3 integrins). […] After washing, bound APC was chromogenically detected by peroxidase-streptavidin conjugate anti-PC (Diapharma, West Chester, Ohio) or chromogenic substrate S-2366 (Diapharma, West Chester, Ohio). To minimize dissociation, all wash buffers contained 1 mM Mn^2+, and <15 minutes elapsed between the end of binding and beginning of color development. Functional blocking antibodies for integrins were from Chemicon (Temecula, Calif.).
# (§2) Among the neutrophil integrins that recognize the RGD motif, α3β1, α5β1, and αVβ3 are key in regulating neutrophil chemotaxis (Yauch et al., Mol. Biol. Cell 9:2751 (1998); Burns et al., J. Immunol. 166:4644 (2001); Sixt et al., J. Biol. Chem. 276:18878 (2001)). To test whether APC can bind directly to the integrins, an ELISA-like solid phase receptor-binding assay was performed (FIG. 2E). Soluble α3β1, α5β1, and αVβ3 were captured onto microtiter wells using mAbs specific for β1 or β3.
# α5β1 = target: T2, α5β1 (Homo sapiens, UniProt P05556+P08648); test: Solid phase integrin ligand binding assay; details: 1 mM Mn2+, 1 mM Ca2+, 1 mM Mg2+
# T2 construct: purchased US Biological, Swampscott, Mass
# Experimental: as §1, §2
# αVβ3 = target: T3, αVβ3 (Homo sapiens, UniProt P05106+P06756); test: Solid phase integrin ligand binding assay; details: 1 mM Mn2+, 1 mM Ca2+, 1 mM Mg2+
# T3 construct: purchased US Biological, Swampscott, Mass
# Experimental: as §1, §2
# human neutrophils [1] = test: Neutrophil adhesion assay on immobilized fibronectin (FN); assay type: cell-based; details: 10 μg/ml protein
# Experimental: The adhesion assay was carried out essentially as described (Vorup-Jensen et al., PNAS 102:1614 (2005)). Cover slips were coated with FN in coating buffer (150 mM NaCl/20 mM Tris.HCl, pH 9.0) for over night at 4° C. and for 4 hours at room temperature. Residual binding sites were blocked by incubation of the wells with 0.05% (wt/vol) polyvinylpyrrolidone in PBS for 30 minutes at room temperature. […] The cover slips were aspirated, and washed with L15 medium. […] Cells (250 μl) were then immediately added, and further incubated at 37° C. for 15 minutes. Unbound cells were then washed with warm L15 medium. The bound cells were then fixed with formaldehyde. For each experimental condition from three independent donors, five random phase-contrast images were obtained, and the number of cells in each well was scored from printed micrographs.
# human neutrophils [2] = test: rhAPC binding to neutrophils in suspension (chromogenic substrate S-2366); details: 1 mM Ca2+ and 1 mM Mg2+ supplemented with 1 mM Mn2+
# Experimental: Control (PBS) or rhAPC-treated neutrophils were incubated with the indicated concentrations of MgCl2 and CaCl2. The LIBS of β1 and β3 integrins were detected by B44 and D3 mAb, respectively. *P<0.05 vs. PBS treated cells. […] Experiments were repeated on neutrophil preparations from three independent donors. In FIGS. 2A, 2C, 2D, 2E, and 2F, results are expressed as mean±SEM of three independent experiments.
# The best characterized integrin binding motif is the RGD sequence, which is present in FN, fibrinogen, von Willebrand factor, vitronectin, and a variety of other adhesion proteins. Many integrins that bind to extracellular protein ligands including α3β1, α5β1, αIIbβ3, and αVβ3, specifically interact with the RGD sequence of their target proteins. […] To test this hypothesis, rhAPC-binding assays were performed with neutrophils in suspension. The assay buffer containing 1 mM Ca^2+ and 1 mM Mg^2+ was supplemented with 1 mM Mn^2+ to activate cell surface integrins.
# human neutrophils [3] = test: Random migration of neutrophils on FN-coated cover glass (live-cell imaging); assay type: cell-based
# Experimental: Delta T dishes were coated with human FN (50 μg/ml, BD Biosciences, San Jose, Calif.) for overnight at 4° C. and then for 4 h at room temperature. Plates were then rinsed with L-15 media. […] The cells were then added to FN-coated dishes in 1.5 ml of L-15 with 2 mg/ml of glucose. For neutrophil live cell staining, 2 μM Green Cell Tracker CMFDA (5-chloromethylfluorescein diacetate; Molecular Probes, Carlsbad, Calif.) was used. Temperature was maintained at 37° C. throughout the experiment using a FCS2 live-cell imaging chamber (Bioptechs, Butler, Pa.). Images were acquired for 30 to 60 minutes under a 10× objective lens using a Nikon TE-2000U inverted microscope. Phase contrast images were acquired every 5 seconds and fluorescence images every 30 seconds. Cell paths were traced using MetaVue™ imaging software (Molecular Devices Corporation, Downingtown, Pa.).
# Random migration was investigated by adding fMLP or IL-8 to media at a final concentration of 10^−8M and analyzed by manually tracing the outline of each cell in selected frames (i.e., at 50 second intervals). The x and y coordinates of each cell were measured using ImageJ software and were corrected so that the starting position was x=0 and y=0.
# The time-lapsed images of migrating neutrophils were taken under phase contrast microscopy. Each image was thresholded and binarized based on brightness to define the centroids of the neutrophils. The closest centroids between consecutive images were linked as a trajectory under the assumption that these centroids were made by the same neutrophil. The maximum distance between the closest centroids was also defined to preclude the artifacts due to cells moving into and out of the field of view.
# human neutrophils [4] = test: Under-agarose migration assay (directional migration); assay type: cell-based; details: 10 μg/ml rhAPC
# Experimental: Delta T dishes (Bioptechs, Butler, Pa.) were coated with fibronectin (FN). Plates were then rinsed with the appropriate media and allowed to air-dry. Molten agarose (Seakem GTG, FMC Bioproducts, Rockland, Me.) was prepared as described (Harler et al., J Immunol., 162:6792 (1999)). Two milliliters of the resulting gel was added to each dish and allowed to solidify at 4° C. for 5 min. Three wells that were 2 mm apart were prepared in the agarose using a template and a beveled punch that was coated with polymixin B. Care was taken to ensure that the plate bottom was not scratched. Punch sections were removed with an aspirator, and the gel was then equilibrated for one hour at 37° C. The wells were then aspirated and loaded with […] of one of the following: PBS (left well), a suspension containing approximately 200,000 cells (middle well), or a solution containing 5 pmol of fMLP (right well). […] The dishes were incubated for 60 min at 37° C., and then fixed with 10% buffered formalin. Counts were then made of the number of cells that had migrated 1 mm towards the right well (towards fMLP, directional migration), 0.5 mm towards the left and right wells (“straddle”), and 1 mm towards the left well (random migration). The experiments were repeated three times per condition.
# T2 sequence (P08648 42-894 limits assumed): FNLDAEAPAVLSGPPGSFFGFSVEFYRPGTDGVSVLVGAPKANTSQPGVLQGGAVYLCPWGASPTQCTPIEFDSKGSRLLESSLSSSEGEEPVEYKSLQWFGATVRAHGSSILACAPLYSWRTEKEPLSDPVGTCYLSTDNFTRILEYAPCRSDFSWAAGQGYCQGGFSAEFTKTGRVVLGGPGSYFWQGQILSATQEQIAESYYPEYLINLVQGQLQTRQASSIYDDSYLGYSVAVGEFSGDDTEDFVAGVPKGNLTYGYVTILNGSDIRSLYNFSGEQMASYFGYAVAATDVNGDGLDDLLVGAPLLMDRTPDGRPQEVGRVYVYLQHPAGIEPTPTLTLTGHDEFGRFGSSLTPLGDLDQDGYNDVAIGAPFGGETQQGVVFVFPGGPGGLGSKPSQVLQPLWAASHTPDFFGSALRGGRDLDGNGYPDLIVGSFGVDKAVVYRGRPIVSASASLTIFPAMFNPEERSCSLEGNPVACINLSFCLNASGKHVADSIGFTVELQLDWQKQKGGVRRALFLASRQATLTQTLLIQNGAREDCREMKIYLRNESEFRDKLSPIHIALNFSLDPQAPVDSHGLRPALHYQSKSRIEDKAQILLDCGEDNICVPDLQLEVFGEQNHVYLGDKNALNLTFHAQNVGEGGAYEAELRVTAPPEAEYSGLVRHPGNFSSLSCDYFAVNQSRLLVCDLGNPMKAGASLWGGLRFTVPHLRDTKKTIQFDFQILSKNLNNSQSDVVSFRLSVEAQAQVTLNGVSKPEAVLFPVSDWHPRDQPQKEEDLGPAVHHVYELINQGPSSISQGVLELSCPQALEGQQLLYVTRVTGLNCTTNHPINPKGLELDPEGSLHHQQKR
# T2 sequence (P08648 895-1049 partner limits assumed): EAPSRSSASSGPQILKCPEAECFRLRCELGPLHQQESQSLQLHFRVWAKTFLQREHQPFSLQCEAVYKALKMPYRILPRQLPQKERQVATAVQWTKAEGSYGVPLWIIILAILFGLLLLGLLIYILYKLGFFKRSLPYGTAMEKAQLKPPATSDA
# T2 sequence (P05556 21-798): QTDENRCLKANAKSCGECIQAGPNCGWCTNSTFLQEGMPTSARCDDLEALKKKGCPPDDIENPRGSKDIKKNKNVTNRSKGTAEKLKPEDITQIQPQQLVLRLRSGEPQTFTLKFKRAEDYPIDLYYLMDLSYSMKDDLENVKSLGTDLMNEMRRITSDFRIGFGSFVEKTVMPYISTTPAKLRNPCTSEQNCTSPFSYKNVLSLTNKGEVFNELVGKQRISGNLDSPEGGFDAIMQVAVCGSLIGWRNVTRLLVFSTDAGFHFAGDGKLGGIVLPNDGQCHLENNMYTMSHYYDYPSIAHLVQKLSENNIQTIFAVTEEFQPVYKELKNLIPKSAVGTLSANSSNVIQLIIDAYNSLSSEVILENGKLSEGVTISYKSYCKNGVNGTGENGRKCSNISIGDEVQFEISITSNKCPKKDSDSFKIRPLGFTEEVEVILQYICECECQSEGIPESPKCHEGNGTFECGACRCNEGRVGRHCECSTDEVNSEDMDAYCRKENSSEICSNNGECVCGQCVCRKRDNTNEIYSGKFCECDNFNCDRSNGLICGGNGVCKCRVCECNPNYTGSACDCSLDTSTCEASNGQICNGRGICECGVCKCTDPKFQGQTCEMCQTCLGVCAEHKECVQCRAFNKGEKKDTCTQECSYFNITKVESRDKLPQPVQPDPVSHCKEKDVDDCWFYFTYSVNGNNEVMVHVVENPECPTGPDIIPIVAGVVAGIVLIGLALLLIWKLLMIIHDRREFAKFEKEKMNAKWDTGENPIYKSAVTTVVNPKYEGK
# T3 sequence (P06756 31-889 limits assumed): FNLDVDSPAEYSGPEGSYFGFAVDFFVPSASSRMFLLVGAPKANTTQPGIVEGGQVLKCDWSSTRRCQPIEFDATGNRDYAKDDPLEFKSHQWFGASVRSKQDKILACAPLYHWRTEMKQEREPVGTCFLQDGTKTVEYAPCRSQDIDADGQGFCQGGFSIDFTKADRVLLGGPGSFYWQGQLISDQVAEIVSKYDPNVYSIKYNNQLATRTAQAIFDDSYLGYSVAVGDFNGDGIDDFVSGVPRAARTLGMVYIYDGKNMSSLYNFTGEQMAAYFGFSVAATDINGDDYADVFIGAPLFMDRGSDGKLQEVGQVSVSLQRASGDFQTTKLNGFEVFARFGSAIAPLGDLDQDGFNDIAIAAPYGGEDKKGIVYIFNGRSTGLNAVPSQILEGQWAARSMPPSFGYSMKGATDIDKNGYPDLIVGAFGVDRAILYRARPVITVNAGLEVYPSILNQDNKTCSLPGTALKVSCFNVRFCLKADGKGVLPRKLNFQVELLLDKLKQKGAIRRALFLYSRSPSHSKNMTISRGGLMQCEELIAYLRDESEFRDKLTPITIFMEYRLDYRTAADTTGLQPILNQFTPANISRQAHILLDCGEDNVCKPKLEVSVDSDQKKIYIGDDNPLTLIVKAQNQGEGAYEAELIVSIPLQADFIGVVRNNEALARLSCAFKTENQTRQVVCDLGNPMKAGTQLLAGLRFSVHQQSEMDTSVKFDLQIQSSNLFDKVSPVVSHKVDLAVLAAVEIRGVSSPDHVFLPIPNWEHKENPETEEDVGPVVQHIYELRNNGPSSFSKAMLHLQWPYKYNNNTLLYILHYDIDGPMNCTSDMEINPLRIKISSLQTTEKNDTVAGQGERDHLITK
# T3 sequence (P06756 891-1048 partner limits assumed): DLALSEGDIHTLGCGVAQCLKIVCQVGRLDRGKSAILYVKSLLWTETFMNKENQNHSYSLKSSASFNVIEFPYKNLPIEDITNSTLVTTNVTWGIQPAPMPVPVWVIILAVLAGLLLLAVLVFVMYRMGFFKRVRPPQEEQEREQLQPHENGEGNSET
# T3 sequence (P05106 27-788): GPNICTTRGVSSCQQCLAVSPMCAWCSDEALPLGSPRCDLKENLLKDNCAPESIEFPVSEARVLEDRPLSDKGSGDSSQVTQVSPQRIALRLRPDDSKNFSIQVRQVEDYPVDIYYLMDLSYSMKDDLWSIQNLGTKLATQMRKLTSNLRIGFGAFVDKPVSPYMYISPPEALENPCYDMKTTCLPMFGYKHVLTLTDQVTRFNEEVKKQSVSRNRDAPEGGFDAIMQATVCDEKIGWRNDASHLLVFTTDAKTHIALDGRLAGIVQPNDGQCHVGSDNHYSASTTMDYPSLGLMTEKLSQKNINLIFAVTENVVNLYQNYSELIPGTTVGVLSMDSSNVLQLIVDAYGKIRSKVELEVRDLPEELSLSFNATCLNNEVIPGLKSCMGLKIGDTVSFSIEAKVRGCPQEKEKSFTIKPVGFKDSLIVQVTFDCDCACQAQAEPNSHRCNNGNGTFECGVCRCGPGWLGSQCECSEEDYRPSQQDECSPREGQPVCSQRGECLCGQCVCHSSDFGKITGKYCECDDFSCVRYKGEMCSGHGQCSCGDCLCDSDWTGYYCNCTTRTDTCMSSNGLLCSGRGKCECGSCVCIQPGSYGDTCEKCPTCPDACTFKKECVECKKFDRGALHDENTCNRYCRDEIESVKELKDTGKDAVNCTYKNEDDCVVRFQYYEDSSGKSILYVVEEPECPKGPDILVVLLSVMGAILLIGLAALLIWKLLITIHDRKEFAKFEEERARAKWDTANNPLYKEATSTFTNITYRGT
# T1 sequence (P26006 33-872 limits assumed): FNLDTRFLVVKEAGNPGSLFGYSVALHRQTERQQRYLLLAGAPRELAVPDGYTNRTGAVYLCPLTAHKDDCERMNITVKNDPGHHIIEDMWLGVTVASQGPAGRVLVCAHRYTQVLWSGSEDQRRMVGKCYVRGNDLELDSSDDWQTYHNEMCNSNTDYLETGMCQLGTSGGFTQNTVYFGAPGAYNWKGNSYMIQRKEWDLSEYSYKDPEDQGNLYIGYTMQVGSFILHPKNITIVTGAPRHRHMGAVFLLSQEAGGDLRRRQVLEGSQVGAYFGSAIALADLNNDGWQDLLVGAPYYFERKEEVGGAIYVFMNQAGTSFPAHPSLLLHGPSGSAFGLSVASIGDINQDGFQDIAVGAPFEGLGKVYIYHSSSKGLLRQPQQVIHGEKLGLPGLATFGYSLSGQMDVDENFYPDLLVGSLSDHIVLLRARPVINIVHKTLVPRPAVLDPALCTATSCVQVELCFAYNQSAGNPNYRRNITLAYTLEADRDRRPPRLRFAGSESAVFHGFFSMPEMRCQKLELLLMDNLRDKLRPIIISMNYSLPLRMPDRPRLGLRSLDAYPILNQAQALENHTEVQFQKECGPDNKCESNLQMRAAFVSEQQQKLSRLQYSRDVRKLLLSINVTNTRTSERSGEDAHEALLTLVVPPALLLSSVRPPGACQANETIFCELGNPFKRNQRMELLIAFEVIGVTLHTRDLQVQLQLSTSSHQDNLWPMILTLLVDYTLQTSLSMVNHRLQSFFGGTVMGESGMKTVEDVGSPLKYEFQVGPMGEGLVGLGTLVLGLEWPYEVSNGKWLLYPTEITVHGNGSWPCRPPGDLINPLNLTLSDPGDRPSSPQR
# T1 sequence (P26006 876-1051 partner limits assumed): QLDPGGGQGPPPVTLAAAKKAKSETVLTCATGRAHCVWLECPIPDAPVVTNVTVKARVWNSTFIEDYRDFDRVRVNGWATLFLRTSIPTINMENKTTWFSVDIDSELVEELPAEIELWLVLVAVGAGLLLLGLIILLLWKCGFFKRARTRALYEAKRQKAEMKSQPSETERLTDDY
# T1 sequence (P05556 21-798): as the sequence (P05556 21-798) above
molecule,measurement,setting,value
B1,direct binding to soluble α3β1,α3β1,bound
same,direct binding to soluble α5β1,α5β1,bound
same,direct binding to soluble αVβ3,αVβ3,bound
same,fMLP-induced adhesion of human neutrophils to immobilized FN,human neutrophils [1],significantly reduced; also recorded: abolished
same,rhAPC binding to the neutrophil surface,human neutrophils [2],significantly increased
same,random migration of neutrophils on FN induced by fMLP,"human neutrophils [3]; 10 μg/ml protein, fMLP",dramatically reduced
same,neutrophil migration on FN by IL-8,"human neutrophils [3]; rhAPC pre-treatment, IL-8",dramatically decreased
same,directional migration of neutrophils on FN towards fMLP,human neutrophils [4],decreased
